Laboratory results as given in patent US20190284293A1 (Bristol-Myers Squibb, published 2019).

T1: cyno CD73, Sino Biological Inc Cat#90192-C08H, bound to his-tag magnet beads (cynomolgus, UniProt P21589 27-547 (human entry))
T1 chain: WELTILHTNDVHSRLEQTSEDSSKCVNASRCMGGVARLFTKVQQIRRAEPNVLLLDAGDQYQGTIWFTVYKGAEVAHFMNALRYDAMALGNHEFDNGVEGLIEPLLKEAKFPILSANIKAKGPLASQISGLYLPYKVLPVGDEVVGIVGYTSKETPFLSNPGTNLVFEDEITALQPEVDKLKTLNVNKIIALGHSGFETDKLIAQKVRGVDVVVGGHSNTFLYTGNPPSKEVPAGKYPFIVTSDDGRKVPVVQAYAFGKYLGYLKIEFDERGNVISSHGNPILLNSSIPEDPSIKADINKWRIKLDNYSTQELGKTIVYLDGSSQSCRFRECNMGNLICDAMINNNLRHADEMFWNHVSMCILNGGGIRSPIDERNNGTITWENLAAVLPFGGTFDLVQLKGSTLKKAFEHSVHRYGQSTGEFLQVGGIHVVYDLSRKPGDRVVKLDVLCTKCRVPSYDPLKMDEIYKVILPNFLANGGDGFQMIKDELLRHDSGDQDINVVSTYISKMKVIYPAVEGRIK

T2: rhCD73 bound to his-tag magnet beads (human, UniProt P21589 27-547, limits assumed)
T2 sequence: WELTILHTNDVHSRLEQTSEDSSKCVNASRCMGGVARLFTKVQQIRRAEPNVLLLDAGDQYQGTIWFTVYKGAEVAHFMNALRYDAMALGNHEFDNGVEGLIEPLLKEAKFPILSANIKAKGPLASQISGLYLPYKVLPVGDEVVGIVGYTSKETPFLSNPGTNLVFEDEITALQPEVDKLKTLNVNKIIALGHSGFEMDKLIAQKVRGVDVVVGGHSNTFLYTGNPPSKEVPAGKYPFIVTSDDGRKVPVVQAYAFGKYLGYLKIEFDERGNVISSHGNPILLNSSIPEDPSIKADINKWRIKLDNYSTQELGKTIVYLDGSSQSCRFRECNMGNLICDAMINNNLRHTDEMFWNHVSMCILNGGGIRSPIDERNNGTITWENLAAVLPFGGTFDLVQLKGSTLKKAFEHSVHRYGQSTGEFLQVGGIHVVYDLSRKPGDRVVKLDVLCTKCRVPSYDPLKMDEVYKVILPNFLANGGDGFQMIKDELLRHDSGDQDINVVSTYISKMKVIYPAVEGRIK

T3: N-hCD73-his (N-terminal domain of human CD73, residues 26-336, His tag) (human, UniProt P21589 26-336)
T3 sequence: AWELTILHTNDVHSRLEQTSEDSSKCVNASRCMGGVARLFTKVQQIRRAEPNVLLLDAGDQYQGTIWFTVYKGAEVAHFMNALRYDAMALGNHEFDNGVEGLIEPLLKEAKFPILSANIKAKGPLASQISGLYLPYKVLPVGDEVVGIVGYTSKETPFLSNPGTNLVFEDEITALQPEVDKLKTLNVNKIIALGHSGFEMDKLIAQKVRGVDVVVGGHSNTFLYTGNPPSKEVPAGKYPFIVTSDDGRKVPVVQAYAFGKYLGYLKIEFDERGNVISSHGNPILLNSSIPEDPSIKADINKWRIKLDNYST


How the values were obtained:
[1] = target: T1, cyno CD73, Sino Biological Inc …; test: cell-based or functional assay
[2] = target: T2, rhCD73 bound to his-tag magnet beads; test: cell-based or functional assay
[3] = target: T3, N-hCD73-his (N-terminal domain of human …); test: SPR
[4] = target: T3, N-hCD73-his (N-terminal domain of human …); test: SPR, comparison of all IgG2 molecules
Protocol: For these experiments, protein A (Pierce) was immobilized to a density of 3000-4000 RU on flow cells 1-4 of a CM5 sensor chip (GE Healthcare) using standard ethyl(dimethylaminopropyl) carbodiimide (EDC)/N-hydroxysuccinimide […] chemistry, with ethanolamine blocking, in a running buffer of 0.01 M HEPES pH 7.4, 0.15 M NaCl, 3 mM EDTA, 0.005% v/v tween 20. […] The running buffer for the kinetic experiments was 10 mM sodium phosphate, 130 mM sodium chloride, 0.05% tween 20, pH 7.1. The surfaces were regenerated after each cycle using two 30 s pulses of 10 mM glycine pH 1.5 at a flow rate of 30 μl/min. Sensogram data was double-referenced and then fitted to a 1:1 Langmuir model using Biacore T100 evaluation software v2.0.4, to determine the association rate constant (ka), the dissociation rate constant (kd), and the equilibrium dissociation constant (KD).

Binder | EC50 (nM), enzymatic inhibition of cyno CD73 (bead-bound) [1] | EC50 (nM), inhibition of bead-bound human CD73 enzymatic activity [2] | Kd [3] | fold lower affinity than 11F11 or CD73.4 [4]
CD73.10-IgG2-C219S-IgG1.1f (antibody, also called CD73.10-IgG2CS-IgG1.1f; CD73.10-IgG2S-IgG1.1f) heavy: QVQLVESGGGVVQPGRSLRLSCAASGFTFSNYGMHWVRQAPGKGLEWVAVIWYDESNKYYPDSVKGRFTISRDNSKNTLYLQMNSLRAEDTAVYYCARGGSSWYPDSFDIWGQGTMVTVSSASTKGPSVFPLAPCSRSTSESTAALGCLVKDYFPEPVTVSWNSGALTSGVHTFPAVLQSSGLYSLSSVVTVPSSNFGTQTYTCNVDHKPSNTKVDKTVERKSCVECPPCPAPPVAGPSVFLFPPKPKDTLMISRTPEVTCVVVDVSHEDPEVKFNWYVDGVEVHNAKTKPREEQYNSTYRVVSVLTVLHQDWLNGKEYKCKVSNKALPSSIEKTISKAKGQPREPQVYTLPPSREEMTKNQVSLTCLVKGFYPSDIAVEWESNGQPENNYKTTPPVLDSDGSFFLYSKLTVDKSRWQQGNVFSCSVMHEALHNHYTQKSLSLSPG light: not shown | 9.94 nM | 4.84 nM |  | 
CD73.10-IgG2-C219S (antibody, also called CD73.10-IgG2CS; CD73.10-IgG2S) heavy: QVQLVESGGGVVQPGRSLRLSCAASGFTFSNYGMHWVRQAPGKGLEWVAVIWYDESNKYYPDSVKGRFTISRDNSKNTLYLQMNSLRAEDTAVYYCARGGSSWYPDSFDIWGQGTMVTVSSASTKGPSVFPLAPCSRSTSESTAALGCLVKDYFPEPVTVSWNSGALTSGVHTFPAVLQSSGLYSLSSVVTVPSSNFGTQTYTCNVDHKPSNTKVDKTVERKSCVECPPCPAPPVAGPSVFLFPPKPKDTLMISRTPEVTCVVVDVSHEDPEVQFNWYVDGVEVHNAKTKPREEQFNSTFRVVSVLTVVHQDWLNGKEYKCKVSNKGLPAPIEKTISKTKGQPREPQVYTLPPSREEMTKNQVSLTCLVKGFYPSDIAVEWESNGQPENNYKTTPPMLDSDGSFFLYSKLTVDKSRWQQGNVFSCSVMHEALHNHYTQKSLSLSPG light: not shown | 8.78 nM | 7.54 nM | ~5 nM | ~10 fold
